Positions count from the first letter of the chain named. Names and notes keep the numbering of the source.
Key:
[1] = tested on: protease according to SEQ ID NO: 3; assay: Relative proteolytic activity with reversible inhibitor in liquid surfactant preparation (Example 1); assay type: biochemical; settings: 50% conc. surfactant preparation, 0.92 mM AAPF, 25° C., pH 8.6, relative to same protease without inhibitor; for relative activity, 3-HPBA: 3-HPBA in amount inhibiting starting enzyme by 20-40%; for relative activity, 4-FPBA: 4-FPBA in amount inhibiting starting enzyme by 20-40%; for relative activity, Boric acid: boric acid in amount inhibiting starting enzyme by 20-40%; for relative activity, BMA: benzylmalonic acid in amount inhibiting starting enzyme by 20-40%
Text: The relative activity to be determined in process step c) of the hydrolytic enzyme modified in process step b) is given by [measured activity of the hydrolytic enzyme modified in process step b) in the presence of the component that stabilizes the hydrolytic enzyme] divided by [measured activity of the hydrolytic enzyme modified in process step b) in the absence of the component that stabilizes the hydrolytic enzyme] multiplied by 100.
The relative activity of the starting enzyme to be determined in process step c) is given by [measured activity of the starting enzyme in the presence of the component that stabilizes the hydrolytic enzyme] divided by [measured activity of the starting enzyme in the absence of the component that stabilizes the hydrolytic enzyme] multiplied by 100.
The nucleic acid sequence of the hydrolytic enzyme present on a plasmid was modified individually or in combination as indicated in Tables 1 and 2 using site directed mutagenesis by means of specific, adapted primers using a Phusion Hot Start Polymerase at the positions S166, A187, F189 or Q191 in the counting according to SEQ ID NO: 1, and the resulting variants were transformed into a suitable host. Active clones were selected by means of a protease-sensitive medium and the DNA sequence was sequenced after isolation of the plasmid for identification purposes. The modified proteases were expressed in the Bacillus host and prepared for the activity determination.
The activity was determined in a liquid preparation that was constituted as follows (all data in wt %): 0.3-0.5% xanthan, 0.2-0.4% defoamer, 6-7% glycerin, 0.3-0.5% ethanol, 4-7% FAEOS (fatty alcohol ether sulfate), 24-28% non-ionic surfactants, 1-2% sodium citrate (dihydrate), 2-4% soda, 14-16% cocoanut fatty acids, 0.5% HEDP (1-hydroxyethane-(1,1-diphosphonic acid)), 0-0.4% PVP (polyvinyl pyrrolidone) 0-0.5% optical brightener, 0-0.001% % colorant, the remainder being demineralized water.
To a 50% conc. liquid preparation of the liquid surfactant preparation were added 0.92 mM AAPF. The reversible inhibitor to be tested was also comprised in the required amount to inhibit the starting enzyme by 20-40%. 20 μl of the respective protease (starting enzyme as well as modified protease variants) were added and the proteolytic activity determined from the release of the chromophore para-nitroaniline (pNA) from the substrate suc-L-Ala-L-Ala-L-Pro-L-Phe-p-nitroanilide (suc-AAPF-pNA). The protease cleaves the substrate and releases pNA. The released pNA causes the extinction at 410 nm to increase; the change in extinction as a function of time is a measure of the enzymatic activity (see Del Mar et al., 1979). The measurement was carried out at a temperature of 25° C., at pH 8.6 and a wavelength of 410 nm.
The measured activity was compared with the activity of a reference formulation of the same protease sample without inhibitor and the respective relative activities of the modified proteases and the starting enzyme were determined. […] The results are presented in the following Tables 1 and 2 (the relative activities are each given).

[2] = tested on: protease according to SEQ ID NO: 3; assay: Inhibition measurements in the biochemical test (Example 2); settings: 0.1 M Tris/HCl pH 8.6 with Brij35, suc-AAPF-pNA
Protocol: The variants S166V and S166G/Q191R as well as the starting enzyme according to SEQ ID NO: 3 were expressed in a suitable expression system, further purified by means of ion exchange chromatography and prepared for the activity determinations in 0.1 M Tris/HCl buffer pH 8.6, comprising Brij35. To the formulations were added increased amounts of the reversible inhibitor 3-HPBA or BMA (see Tables 3 and 4) and the proteolytic residual activity of the respective protease was determined from the release of the chromophore para-nitroaniline (pNA) from the substrate suc-L-Ala-L-Ala-L-Pro-L-Phe-p-nitroanilide (suc-AAPF-pNA) as described above.

B1: S166: protease according to SEQ ID NO: 3 used as the hydrolytic enzyme (starting enzyme) (protein, listed as Bacillus lentus)
chain: AQSVPWGISRVQAPAAHNRGLTGSGVKVAVLDTGISTHPDLNIRGGASFVPGEPSTQDGNGHGTHVAGTIAALNNSIGVLGVAPSAELYAVKVLGADGEGAISSIAQGLEWAGNNGMHVANLSLGSPSPSATLEQAVNSATSRGVLVVAASGNSGASSISYPARYANAMAVGATDQNNNRASFSQYGAGLDIVAPGVNVQSTYPGSTYASLNGTSMATPHVAGAAALVKQKNPSWSNVQIRNHLKNTATSLGSTNLYGSGLVNAEAATR
[1]; Table 1
  relative activity, 3-HPBA: 83%
  relative activity, 4-FPBA: 75%
  relative activity, Boric acid: 83%
[1]; Table 2
  relative activity, BMA: 81%
  relative activity, Boric acid: 79%
[2]; 3-HPBA 0.05 mM
  proteolytic residual activity, 3-HPBA: 93%
[2]; 3-HPBA 0.1 mM
  proteolytic residual activity, 3-HPBA: 89%
[2]; 3-HPBA 0.5 mM
  proteolytic residual activity, 3-HPBA: 81%
[2]; 3-HPBA 1 mM
  proteolytic residual activity, 3-HPBA: 65%
[2]; 3-HPBA 1.5 mM
  proteolytic residual activity, 3-HPBA: 56%
[2]; BMA 0.05 Gew.-%
  proteolytic residual activity, BMA: 96%
[2]; BMA 0.5 Gew.-%
  proteolytic residual activity, BMA: 95%
[2]; BMA 1.0 Gew.-%
  proteolytic residual activity, BMA: 93%
[2]; BMA 1.7 Gew.-%
  proteolytic residual activity, BMA: 94%
[2]; BMA 2.5 Gew.-%
  proteolytic residual activity, BMA: 74%
[2]; BMA 3.3 Gew.-%
  proteolytic residual activity, BMA: 73%
[2]; BMA 4.0 Gew.-%
  proteolytic residual activity, BMA: 78%
[2]; BMA 5.0 Gew.-%
  proteolytic residual activity, BMA: 64%

B2: Q191R: protease of SEQ ID NO: 3 with amino acid substitution Q191R in the count according to SEQ ID NO: 1 (protein, listed as Bacillus lentus)
chain: B1 chain with Q185R
[1]; Table 2
  relative activity, BMA: 63%
  relative activity, Boric acid: 76%

B3: F189R: protease of SEQ ID NO: 3 with amino acid substitution F189R in the count according to SEQ ID NO: 1 (protein, listed as Bacillus lentus)
chain: B1 chain with F183R
[1]; Table 2
  relative activity, BMA: 80%
  relative activity, Boric acid: 53%

B4: A187D/F189R: protease of SEQ ID NO: 3 with amino acid substitutions A187D and F189R in the count according to SEQ ID NO: 1 (protein, listed as Bacillus lentus)
chain: B1 chain with A181D, F183R
[1]; Table 2
  relative activity, BMA: 43%
  relative activity, Boric acid: 37%

B5: S166V: protease of SEQ ID NO: 3 with amino acid substitution S166V in the count according to SEQ ID NO: 1 (protein, listed as Bacillus lentus)
chain: B1 chain with S160V
[1]; Table 1
  relative activity, 3-HPBA: 53%
  relative activity, 4-FPBA: 71%
  relative activity, Boric acid: 59%
[2]; 3-HPBA 0.05 mM
  proteolytic residual activity, 3-HPBA: 84%
[2]; 3-HPBA 0.1 mM
  proteolytic residual activity, 3-HPBA: 87%
[2]; 3-HPBA 0.5 mM
  proteolytic residual activity, 3-HPBA: 65%
[2]; 3-HPBA 1 mM
  proteolytic residual activity, 3-HPBA: 51%
[2]; 3-HPBA 1.5 mM
  proteolytic residual activity, 3-HPBA: 40%

B6: S166G/Q191R: protease of SEQ ID NO: 3 with amino acid substitutions S166G and Q191R in the count according to SEQ ID NO: 1 (protein, listed as Bacillus lentus)
chain: B1 chain with S160G, Q185R
[1]; Table 2
  relative activity, BMA: 35%
  relative activity, Boric acid: 57%
[2]; BMA 0.05 Gew.-%
  proteolytic residual activity, BMA: 88%
[2]; BMA 0.5 Gew.-%
  proteolytic residual activity, BMA: 55%
[2]; BMA 1.0 Gew.-%
  proteolytic residual activity, BMA: 42%
[2]; BMA 1.7 Gew.-%
  proteolytic residual activity, BMA: 35%
[2]; BMA 2.5 Gew.-%
  proteolytic residual activity, BMA: 38%
[2]; BMA 3.3 Gew.-%
  proteolytic residual activity, BMA: 32%
[2]; BMA 4.0 Gew.-%
  proteolytic residual activity, BMA: 36%
[2]; BMA 5.0 Gew.-%
  proteolytic residual activity, BMA: 32%

B7: S166A: protease of SEQ ID NO: 3 with amino acid substitution S166A in the count according to SEQ ID NO: 1 (protein, listed as Bacillus lentus)
chain: B1 chain with S160A
[1]; Table 1
  relative activity, 3-HPBA: 83%
  relative activity, 4-FPBA: 61%
  relative activity, Boric acid: 76%

B8: S166G: protease of SEQ ID NO: 3 with amino acid substitution S166G in the count according to SEQ ID NO: 1 (protein, listed as Bacillus lentus)
chain: B1 chain with S160G
[1]; Table 2
  relative activity, BMA: 80%
  relative activity, Boric acid: 65%

B9: S166Y: protease of SEQ ID NO: 3 with amino acid substitution S166Y in the count according to SEQ ID NO: 1 (protein, listed as Bacillus lentus)
chain: B1 chain with S160Y
[1]; Table 1
  relative activity, 3-HPBA: 58%
  relative activity, 4-FPBA: 100%
  relative activity, Boric acid: 68%

B10: A187D: protease of SEQ ID NO: 3 with amino acid substitution A187D in the count according to SEQ ID NO: 1 (protein, listed as Bacillus lentus)
chain: B1 chain with A181D
[1]; Table 2
  relative activity, BMA: 79%
  relative activity, Boric acid: 47%

Source: US9695461B2, “Method for adapting a hydrolytic enzyme to a component that stabilizes the hydrolytic enzyme” (Henkel AG & Co. KGaA, priority 2011, dated 2017)
